Key:
[1] = molecular target: human kappa opioid receptor fused to the alpha7 nicotinic signal peptide and eGFP (pcDNA3.1) (human) (UniProt P41145)
[2] = molecular target: human kappa opioid receptor Tango construct (tTA-hKOR) (human) (UniProt P41145)
[3] = molecular target: human kappa opioid receptor, stably expressed in CHO cells (hKOR-CHO) (human) (UniProt P41145)
Chain of human kappa opioid receptor, stably expressed in CHO cells (hKOR-CHO) (human) (P41145 whole entry): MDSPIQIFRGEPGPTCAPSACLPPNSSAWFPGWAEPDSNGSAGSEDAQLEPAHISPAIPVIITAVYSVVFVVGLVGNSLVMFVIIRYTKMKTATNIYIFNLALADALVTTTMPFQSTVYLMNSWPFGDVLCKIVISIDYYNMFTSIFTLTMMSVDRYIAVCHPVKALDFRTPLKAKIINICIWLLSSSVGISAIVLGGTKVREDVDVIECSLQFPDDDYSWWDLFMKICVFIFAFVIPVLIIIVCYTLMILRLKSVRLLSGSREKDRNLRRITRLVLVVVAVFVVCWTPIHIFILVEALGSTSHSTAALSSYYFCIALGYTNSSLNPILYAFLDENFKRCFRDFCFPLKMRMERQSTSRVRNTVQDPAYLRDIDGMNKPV

Chain of human kappa opioid receptor Tango construct (tTA-hKOR) (human) (P41145 whole entry): as above
Chain of human kappa opioid receptor fused to the alpha7 nicotinic signal peptide and eGFP (pcDNA3.1) (human) (P41145 whole entry, the tested form may be a part): as the sequence (P41145 whole entry) above

Substance	TRUPATH (BRET) G-protein dissociation, Gα3 subunit: fold shift of EC50 against the mean of same day DynA WT controls [1] [fold shift]	PRESTO-Tango β-arrestin recruitment: fold shift of EC50 against the mean of same day DynA WT controls [2] [fold shift]	EC50 of [35S]GTPγS binding to hKOR-CHO cell membranes (G-protein activation) [3] [µM]	efficacy (maximal [35S]GTPγS binding to hKOR-CHO cell membranes) [3] [CPM]
Dynorphin A R9C mutant peptide	3	5	–	–
Dynorphin A R6W mutant peptide	11	16	0.105	1240
Dynorphin A L5S mutant peptide	7	13	–	–

From publication PMC8698333
